Patent US20230087785A1, “Leucine-Rich Repeat Kinase 2 Allosteric Modulators” (VIB VZW, priority 2020, published 2023)
Numbering of substitutions follows the chain as printed. Values belong to the molecule of their own block, whether it stands above or below them.

What was measured:
LRRK2(G2019S) = target: T1, LRRK2(G2019S) (Homo sapiens, UniProt Q5S007, G2019S/M2397T/R50H); assay: In cellulo phospho-Rab / LRRK2 autophosphorylation assay in HEK293T cells; assay type: cell-based; set-up: key to Functional Group (see FIG. 2d): Group 1: group 1: Nbs that inhibit both LRRK2 autophosphorylation and Rab10 phosphorylation in cells; Group 2: group 2: Nbs that inhibit only Rab10 phosphorylation; Group 3: group 3: Nbs that activate LRRK2 kinase activity; Group 4: group 4: Nbs that have no consistent/clear effect on LRRK2 kinase activity; conditions: for LRRK2 autophosphorylation at position S1292 / influence on LRRK2 kinase activity compared to the controls / Rab10 phosphorylation at position T72: HEK 293T cells co-expressing LRRK2(G2019S), Rab29 and Nb-GFP; for influence on LRRK2 kinase activity compared to the controls: Western blot; for Functional Group (see FIG. 2d): classification by effect on in cellulo LRRK2(G2019S) kinase activity; for Rab10 phosphorylation at position T72: endogenous Rab10
T1 construct: SF tag (FLAG + Twin-Strep); expressed in transfected cells; host or cells: HEK 293T
T1 sequence (Q5S007 whole entry R50H/G2019S/M2397T): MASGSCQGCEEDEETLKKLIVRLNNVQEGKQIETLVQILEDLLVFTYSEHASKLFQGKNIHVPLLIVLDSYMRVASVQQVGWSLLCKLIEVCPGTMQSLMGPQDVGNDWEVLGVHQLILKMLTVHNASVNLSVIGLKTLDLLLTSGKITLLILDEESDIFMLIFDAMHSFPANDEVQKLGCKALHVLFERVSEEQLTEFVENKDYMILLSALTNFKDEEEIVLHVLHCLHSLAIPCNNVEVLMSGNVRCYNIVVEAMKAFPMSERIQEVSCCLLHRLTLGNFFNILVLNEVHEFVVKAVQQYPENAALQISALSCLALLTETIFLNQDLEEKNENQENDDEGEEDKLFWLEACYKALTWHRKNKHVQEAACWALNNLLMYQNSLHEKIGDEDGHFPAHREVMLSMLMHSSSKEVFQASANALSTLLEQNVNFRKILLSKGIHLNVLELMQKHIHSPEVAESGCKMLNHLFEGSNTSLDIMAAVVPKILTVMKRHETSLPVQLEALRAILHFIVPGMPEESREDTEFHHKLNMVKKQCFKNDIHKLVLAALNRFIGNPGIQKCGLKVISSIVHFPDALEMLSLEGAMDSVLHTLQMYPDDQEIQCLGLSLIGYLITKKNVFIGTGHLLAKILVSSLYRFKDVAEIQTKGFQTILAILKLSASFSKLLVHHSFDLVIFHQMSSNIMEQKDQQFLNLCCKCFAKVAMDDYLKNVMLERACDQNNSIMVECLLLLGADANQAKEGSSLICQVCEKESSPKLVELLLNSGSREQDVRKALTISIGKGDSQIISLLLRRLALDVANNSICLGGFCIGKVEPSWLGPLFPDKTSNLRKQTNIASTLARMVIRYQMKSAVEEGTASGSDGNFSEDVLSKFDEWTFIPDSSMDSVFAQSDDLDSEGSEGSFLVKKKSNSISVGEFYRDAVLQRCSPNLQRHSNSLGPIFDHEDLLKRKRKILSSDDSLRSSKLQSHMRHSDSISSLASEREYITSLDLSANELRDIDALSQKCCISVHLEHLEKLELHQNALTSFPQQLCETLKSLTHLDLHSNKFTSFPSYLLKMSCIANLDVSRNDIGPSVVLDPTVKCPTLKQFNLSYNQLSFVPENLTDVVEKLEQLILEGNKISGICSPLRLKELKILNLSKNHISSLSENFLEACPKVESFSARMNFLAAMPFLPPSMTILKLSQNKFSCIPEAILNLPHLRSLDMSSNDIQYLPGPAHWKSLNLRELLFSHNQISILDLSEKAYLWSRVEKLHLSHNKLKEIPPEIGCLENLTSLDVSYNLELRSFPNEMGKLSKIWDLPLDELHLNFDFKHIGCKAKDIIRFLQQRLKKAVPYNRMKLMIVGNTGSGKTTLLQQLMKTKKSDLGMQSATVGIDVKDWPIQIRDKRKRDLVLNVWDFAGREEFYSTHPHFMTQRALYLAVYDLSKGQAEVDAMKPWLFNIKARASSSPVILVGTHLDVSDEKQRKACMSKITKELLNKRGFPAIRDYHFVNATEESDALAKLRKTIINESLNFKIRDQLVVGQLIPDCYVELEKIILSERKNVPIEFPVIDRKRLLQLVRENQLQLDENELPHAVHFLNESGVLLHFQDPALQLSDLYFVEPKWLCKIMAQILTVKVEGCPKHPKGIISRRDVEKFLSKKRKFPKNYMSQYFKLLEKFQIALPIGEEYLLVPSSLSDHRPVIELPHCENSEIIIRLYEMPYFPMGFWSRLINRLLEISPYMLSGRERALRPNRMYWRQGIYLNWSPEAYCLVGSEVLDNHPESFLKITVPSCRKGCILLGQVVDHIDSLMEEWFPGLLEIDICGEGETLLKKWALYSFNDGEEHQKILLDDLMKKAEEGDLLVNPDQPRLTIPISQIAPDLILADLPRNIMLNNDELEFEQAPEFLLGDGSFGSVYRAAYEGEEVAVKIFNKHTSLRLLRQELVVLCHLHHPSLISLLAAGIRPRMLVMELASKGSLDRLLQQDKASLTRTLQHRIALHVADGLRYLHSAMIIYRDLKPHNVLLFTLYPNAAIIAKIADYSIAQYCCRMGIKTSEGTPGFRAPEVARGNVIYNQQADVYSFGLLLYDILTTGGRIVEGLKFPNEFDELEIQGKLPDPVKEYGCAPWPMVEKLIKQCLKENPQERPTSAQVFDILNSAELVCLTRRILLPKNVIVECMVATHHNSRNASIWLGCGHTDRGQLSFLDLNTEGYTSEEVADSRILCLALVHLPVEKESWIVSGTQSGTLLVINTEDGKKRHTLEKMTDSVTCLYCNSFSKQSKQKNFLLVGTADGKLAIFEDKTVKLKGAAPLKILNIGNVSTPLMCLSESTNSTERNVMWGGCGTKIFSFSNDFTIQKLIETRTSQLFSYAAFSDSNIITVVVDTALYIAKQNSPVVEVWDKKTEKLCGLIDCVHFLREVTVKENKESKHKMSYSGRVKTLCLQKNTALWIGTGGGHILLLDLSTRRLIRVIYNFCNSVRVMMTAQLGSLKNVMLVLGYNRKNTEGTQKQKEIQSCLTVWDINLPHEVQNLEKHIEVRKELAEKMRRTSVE
Method: (FIGS. 2A-2C) LRRK2(G2019S) and its effector Rab29 were overexpressed together with GFP-fused Nbs (“Fluobody”) in HEK293T cells. A negative control, where no Nb is overexpressed (“No Nb”) is also included. […] In rows labeled “pLRRK2”, LRRK2 pS1292 levels are determined by Western Blot using a site-specific anti-pLRRK2(pS1292) antibody (Abcam, ab203181) (shown at different times of development). In the rows labeled “pRAB10”, endogenous pT72-Rab10 levels are determined by Western Blot using the MJFF/Abcam antibody MJF-R21 (Abcam, ab230261) (shown at different times of development). The three lower rows contain controls of LRRK2 (rat anti-LRRK2, 24D8), Fluobody (rat anti-GFP) and Rab10 (rabbit anti-Rab10) expression levels. (FIG. 2D) Based on the results of panels (FIGS. 2A-2C) the Nbs can be divided into 4 functional groups, with group 1: Nbs that inhibit both LRRK2 autophosphorylation and Rab10 phosphorylation in cells; group 2: Nbs that inhibit only Rab10 phosphorylation; group 3: Nbs that activate LRRK2 kinase activity; group 4: Nbs that have no consistent/clear effect on LRRK2 kinase activity.
To assess the influence of the Nbs on LRRK2 kinase activity we monitored two physiologically and disease relevant activities of LRRK2: phosphorylation of the endogenous substrate Rab10 at position T72 and LRRK2 autophosphorylation at position S1292 [25-30]. […] In our cellular assay we thus co-expressed LRRK2(G2019S), Rab29 and the different Nb-GFP fusions in HEK 293T cells (FIG. 2a-c).
HEK 293T cells were cultured in DMEM (supplemented with 10% Fetal Bovine Serum, […] L-Glutamine and 0.5% Pen/Strep). For the assay, the cells were seeded onto six-well plates and transfected at a confluency of 50-70% with the individual Nb-GFP expression constructs, SF-tagged LRRK2(G2019S) and FLAG-HA Rab29 using a self-made polyethylenimine (PEI)-based transfection reagent. After 48 hrs cells were lysed in lysis buffer [30 mM Tris-HCL (pH7.4), 150 mM NaCl, 0.5% Nonident-P40, complete protease inhibitor cocktail, phosphatase inhibitor cocktail II & III (all Sigma)]. Lysates were cleared by centrifugation at 10,000×g and adjusted to a protein concentration of 1 μg/μl in 1× Laemmli Buffer. Samples were subsequently subjected to SDS PAGE and Western Blot analysis to determine LRRK2 pS1292 and Rab10 T72 phosphorylation levels, as described below. Total LRRK2 and Rab10 levels were determined as a reference.
For western blot analysis, protein samples were separated by SDS-PAGE using NuPAGE 10% Bis-Tris gels (Invitrogen) and transferred onto PVDF membranes (Thermo Fisher). To allow simultaneous probing for LRRK2 on the one hand and Rab and the Nb-GFP fusions on the other hand, membranes were cut horizontally at the 140 kDa MW marker band. After blocking non-specific binding sites with 5% non-fat dry milk in TBST (1 h, RT) (25 mM Tris, pH 7.4, 150 mM NaCl, 0.1% Tween-20), membranes were incubated overnight at 4° C. with primary antibodies at dilutions specified below. Phospho-specific antibodies were diluted in TBST/5% BSA (Roth GmbH). Non-phospho-specific antibodies were diluted in TBST/5% non-fat dry milk powder (BioRad). Phospho-Rab10 levels were determined by the site-specific rabbit monoclonal antibody anti-pRAB10([…]) (Abcam, ab230261) and LRRK2 autophosphorylation was determined by the site-specific rabbit monoclonal antibody anti-pLRRK2(pS1292) (Abcam, ab203181), both at a dilution of 1:2,000. Total LRRK2 levels were determined by the in-house rat monoclonal antibody anti-pan-LRRK2 (clone 24D8; 1:10,000). Total Rab10 levels were determined by the rabbit monoclonal antibody anti-RAB10/ERP13424 (Abcam, ab181367) at a dilution of 1:5,000. Nb-GFP fusion proteins were detected using the rat monoclonal antibody anti-GFP (clone 3H9, ChromoTec) at a dilution of 1:2,000. For detection, goat anti-rat IgG or anti-rabbit IgG HRP-coupled secondary antibodies (Jackson ImmunoResearch) were used at a dilution of 1:15,000 in TBST/5% non-fat dry milk powder. […]

endogenous LRRK2 = target: T2, endogenous LRRK2 (Mus musculus, UniProt Q5S006); assay: Colocalization of GFP-Nbs with endogenous LRRK2 on zymosan-containing phagosomes in RAW264.7 cells; assay type: cell-based; conditions: RAW264.7 cells transfected with GFP-Nbs, zymosan 30 mins, fixed cells
T2 construct: endogenous in cells; host or cells: RAW264.7
T2 sequence (Q5S006 whole entry): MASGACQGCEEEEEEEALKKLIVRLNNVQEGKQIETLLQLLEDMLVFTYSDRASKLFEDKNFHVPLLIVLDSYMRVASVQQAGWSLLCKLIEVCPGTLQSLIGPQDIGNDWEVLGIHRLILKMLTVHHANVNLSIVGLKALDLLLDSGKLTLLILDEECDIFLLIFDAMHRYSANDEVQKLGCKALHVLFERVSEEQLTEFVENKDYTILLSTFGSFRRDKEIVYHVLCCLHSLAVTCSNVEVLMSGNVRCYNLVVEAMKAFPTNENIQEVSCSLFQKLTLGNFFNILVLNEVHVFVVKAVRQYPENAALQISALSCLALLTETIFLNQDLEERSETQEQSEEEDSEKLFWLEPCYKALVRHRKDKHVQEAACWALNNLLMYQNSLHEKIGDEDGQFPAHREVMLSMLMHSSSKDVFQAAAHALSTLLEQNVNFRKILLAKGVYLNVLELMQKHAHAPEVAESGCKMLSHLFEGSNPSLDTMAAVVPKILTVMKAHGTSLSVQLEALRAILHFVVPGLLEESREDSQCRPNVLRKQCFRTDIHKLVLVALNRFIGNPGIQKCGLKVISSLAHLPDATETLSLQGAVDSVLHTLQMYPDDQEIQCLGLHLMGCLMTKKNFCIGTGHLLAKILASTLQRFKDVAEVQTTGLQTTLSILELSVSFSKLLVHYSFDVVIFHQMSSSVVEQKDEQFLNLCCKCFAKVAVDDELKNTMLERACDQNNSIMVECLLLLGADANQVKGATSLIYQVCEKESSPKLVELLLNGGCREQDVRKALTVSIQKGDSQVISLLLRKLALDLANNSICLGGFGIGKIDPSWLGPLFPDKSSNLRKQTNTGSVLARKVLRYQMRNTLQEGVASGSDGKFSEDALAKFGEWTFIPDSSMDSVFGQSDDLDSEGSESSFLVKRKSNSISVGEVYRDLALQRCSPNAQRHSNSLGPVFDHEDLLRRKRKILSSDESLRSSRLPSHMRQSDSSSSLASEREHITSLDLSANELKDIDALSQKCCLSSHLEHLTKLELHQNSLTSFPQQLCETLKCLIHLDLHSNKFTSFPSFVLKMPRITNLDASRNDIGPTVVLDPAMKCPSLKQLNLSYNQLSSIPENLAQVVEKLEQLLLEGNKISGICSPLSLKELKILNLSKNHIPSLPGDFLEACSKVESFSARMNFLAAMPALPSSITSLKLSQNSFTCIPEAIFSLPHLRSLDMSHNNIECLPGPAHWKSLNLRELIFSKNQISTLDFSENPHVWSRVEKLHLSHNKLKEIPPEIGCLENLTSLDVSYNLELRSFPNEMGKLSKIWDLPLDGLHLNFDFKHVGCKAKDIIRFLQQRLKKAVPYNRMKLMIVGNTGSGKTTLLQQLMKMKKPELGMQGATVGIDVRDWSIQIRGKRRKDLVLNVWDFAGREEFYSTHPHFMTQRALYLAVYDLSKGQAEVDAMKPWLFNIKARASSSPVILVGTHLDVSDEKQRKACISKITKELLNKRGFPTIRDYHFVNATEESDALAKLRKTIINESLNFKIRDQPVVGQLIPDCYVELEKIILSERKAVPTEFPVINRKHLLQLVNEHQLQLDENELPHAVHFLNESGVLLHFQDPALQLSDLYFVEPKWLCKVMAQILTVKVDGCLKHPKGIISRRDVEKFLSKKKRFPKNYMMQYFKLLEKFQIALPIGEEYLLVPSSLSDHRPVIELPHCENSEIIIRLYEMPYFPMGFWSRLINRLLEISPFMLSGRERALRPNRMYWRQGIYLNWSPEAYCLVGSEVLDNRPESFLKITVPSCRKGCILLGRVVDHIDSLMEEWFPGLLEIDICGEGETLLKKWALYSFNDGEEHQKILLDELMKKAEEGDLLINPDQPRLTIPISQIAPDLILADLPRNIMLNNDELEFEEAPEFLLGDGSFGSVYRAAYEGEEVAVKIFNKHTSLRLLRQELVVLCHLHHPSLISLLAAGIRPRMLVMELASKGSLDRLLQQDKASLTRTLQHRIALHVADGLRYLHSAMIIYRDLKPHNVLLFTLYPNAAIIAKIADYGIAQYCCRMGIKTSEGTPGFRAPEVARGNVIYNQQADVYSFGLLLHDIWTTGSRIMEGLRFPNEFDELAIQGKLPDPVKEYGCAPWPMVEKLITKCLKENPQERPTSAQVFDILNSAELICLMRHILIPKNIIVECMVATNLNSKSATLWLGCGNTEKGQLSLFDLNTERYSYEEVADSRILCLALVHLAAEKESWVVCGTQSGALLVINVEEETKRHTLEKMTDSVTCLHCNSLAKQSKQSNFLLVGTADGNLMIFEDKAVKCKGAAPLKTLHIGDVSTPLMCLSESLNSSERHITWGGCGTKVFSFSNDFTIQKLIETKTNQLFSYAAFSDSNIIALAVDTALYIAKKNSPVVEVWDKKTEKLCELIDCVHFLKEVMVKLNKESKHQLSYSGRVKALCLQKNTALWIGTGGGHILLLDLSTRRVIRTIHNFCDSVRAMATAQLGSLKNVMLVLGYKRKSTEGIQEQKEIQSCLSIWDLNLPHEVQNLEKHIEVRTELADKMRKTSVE
Method: RAW264.7 cells were transfected with GFP-fused Nbs and treated with Zymosan for 30 mins. Recruitment of LRRK2 and Nbs to the phagosomes was analyzed by immunofluorescence. FIG. 16A, images for Nb38, Nb22, Nb23, Nb40, No Nb, or Irrelevant (IRR) Nb treatments; FIG. 16B, images for Nb36, Nb42, Nb17, Nb39, Nb1, and Nb6 treatments. Scale bar=10 μm.
To test whether Nbs can trace and visualize endogenous LRRK2 in fixed cells, we generated green fluorescent protein (GFP)-Nb fusions (fluobodies) as described before. Recently, it was shown that LRRK2 is recruited to phagosomes upon induction of phagocytosis in immune cells. Therefore, RAW264.7 cells were transfected with these fluobodies and treated with killed yeast bioparticles “zymosan” to induce phagocytosis.
RAW264.7 cells (ATCC® SC-6003™) were transfected with peGFP-Nb constructs using JetOPTIMUS (Polyplus transfection) for 24 hrs and then stimulated with Zymosan particles (Sigma Aldrich) for 30 mins ([…]). Immunostaining for LRRK2 was performed as reported before. Briefly, cells fixed with 4% (w/v) paraformaldehyde for 30 min, followed by treatment with 100% EtOH at −20° C. Sampled were permeabilized with PBS/0.5% Triton X-100 and blocked with 3% BSA. Primary antibodies (rabbit anti-LRRK2, c41-2, Abcam and mouse anti-GFP, G6539, Sigma Aldrich) were diluted in PBS containing 3% BSA and 0.5% Triton X-100 and incubated overnight at 4° C. After three 5-min washes with PBS, secondary fluorescently labeled antibodies (anti-rabbit-Alexa fluor 568 and anti-mouse-Alexa fluor 488, Invitrogen) were added in a similar manner to primary antibodies and incubated for 1 hour at room temperature. Cells were washed twice with 1×PBS and mounted with Fluroshield antifade reagent with DAPI (SigmaAldrich). Images were acquired on Zeiss LSM800 confocal laser scanning microscope. Image analysis of z-scan was done using the Zeiss microscope software ZEN.

Functional Group (see FIG. 2d) (LRRK2(G2019S)): Group 2 | Rab10 phosphorylation at position T72 (LRRK2(G2019S)): inhibit Rab10 phosphorylation | colocalization with endogenous LRRK2 on phagosomes (endogenous LRRK2): did not colocalize with endogenous LRRK2
B1: Nb36: LRRK2-specific Nanobody, SEQ ID NO: 7 (protein)
VHH: MAQVQLVESGGGLVQPGGSLRLSCAASGSIRSITTSAWFRQPPGKQRELVAGISSGTSTNYADSVKGRFTISRDNAKNTVYLQMNSLKPEDTAVYYCHVWISGTWYSGQGTQVTVSS
modifications: Nanobody CA14130
LRRK2 autophosphorylation at position S1292 (LRRK2(G2019S)): inhibiting S1292 phosphorylation at a lesser extent | influence on LRRK2 kinase activity compared to the controls (LRRK2(G2019S)): strongly decreased LRRK2 autophosphorylation and/or Rab10 phosphorylation

Functional Group (see FIG. 2d) (LRRK2(G2019S)): Group 2 | Rab10 phosphorylation at position T72 (LRRK2(G2019S)): inhibit Rab10 phosphorylation
B2: Nb38: LRRK2-specific Nanobody, SEQ ID NO: 8 (protein)
VHH: B1 VHH with T34A, F39Y, S58T, V99A, Y106I
modifications: Nanobody CA14133
LRRK2 autophosphorylation at position S1292 (LRRK2(G2019S)): inhibiting S1292 phosphorylation at a lesser extent | influence on LRRK2 kinase activity compared to the controls (LRRK2(G2019S)): strongly decreased LRRK2 autophosphorylation and/or Rab10 phosphorylation | colocalization with endogenous LRRK2 on phagosomes (endogenous LRRK2): clearly colocalized with LRRK2 on zymosan-containing phagosomes

Functional Group (see FIG. 2d) (LRRK2(G2019S)): Group 4
B3: Nb39: LRRK2-specific Nanobody, SEQ ID NO: 10 (protein)
VHH: MAQVQLVESGGGLVQAGGSLRLSCRASGGTFSTYAMGWFRQVPGKERETVAAVKWSGDMTYYADSVKGRFTISRDNAKNTVYLQMNSLRPEDTAVYYCAARRGLSYYRGPSEYDYWGQGTQVTVSS
modifications: Nanobody CA14134
influence on LRRK2 kinase activity compared to the controls (LRRK2(G2019S)): no influence on LRRK2 kinase activity | colocalization with endogenous LRRK2 on phagosomes (endogenous LRRK2): LRRK2 recruitment to phagosomes was slightly detectable
